The values below come from patent publication US20050182242A1, “Global analysis of protein activities using proteome chips” (priority 2001, published 2005).

What all share (conditions): liposome binding signal on yeast proteome chip, Cy3-streptavidin detection
The test system of one data set is PI(3,4,5)P3 liposomes. Briefly: Yeast proteome chip probed with PI(3,4,5)P3 liposomes. The text has this:
(§1) To identify PI-binding proteins in yeast, liposomes were used as probes because the liposome provides the most relevant physiological condition to assay the interactors. Six types of liposomes were used. Each contains phosphatidylcholine (“PC”) with 1% (w/w) N-(biotinoyl)-1,2-dihexadecanoyl-sn-glycero-3-phosphoethanolamine, triethylammonium salt (biotin DHPE). The biotinylated lipid serves as a label that can be detected by Cy3-streptavidin (21). In addition to PC, the five other liposomes contain either 5% (w/w) PI(3)P, PI(4)P, PI(3,4)P2, PI(4,5)P2, or PI(3,4,5)P3 (FIG. 3A).
(§2) The protein-liposome interaction was assayed as follows. Appropriate amounts of each lipid in chloroform were mixed and dried under nitrogen. The lipid mixture was resuspended in TBS buffer by vortexing. The liposomes were created by sonication. Blocked proteome chips were washed three to five times in PBS buffer, and the extra liquid on the glass surface was removed by tapping the slides vertically on a KIMWIPE™. 200 μl of liposome solution was added to the proteome chip and immediately covered by a hydrophobic plastic cover slip (GRACE BIO-LAB™, USA). After trapped air bubbles were removed, the chip was incubated in a humidity chamber at RT for one hour. To remove the cover slip, the chip was immersed into large volume of PBS buffer (50 ml), so that the slip would float away. The chip was then moved to a second PBS bath (>50 ml) and washed 3×5 min with shaking at RT. After removing extra liquid on the surface of the chip, about 100 μl of Cy3 or Cy5 conjugated streptavidin (PIERCE™, USA; 1:2000 to 1:4000 dilution) was added to the surface and covered by a hydrophobic plastic cover slip (GRACE BIO-LABS™, USA). The chip was incubated for greater than 30 min in the dark at RT. The chip was then washed as described above. To completely remove the liquid on the chip, the chip was spun to dryness at 1500-2000 rpm for 5-10 min at RT.
(§3) • 1. S. Fields, Y. Kohara, D. J. Lockhart, Proc. Natl. Acad. Sci. 96, 8825 (1999); A. Goffeau et al., Science 274, 563 (1996). • 2 P. Ross-Macdonald et al., Nature 402, 413 (1999); J. L., DeRisi, V. R. Iyer, P. O. Brown, Science 278, 680 (1997); E. A. Winzeler et al., Science 285, 901 (1999). P. Uetz et al., Nature 403, 623 (2000); T. Ito et al., Proc. Natl. Acad. Sci. USA. 97, 1143 (2000) • 3 H. Zhu, M. Snyder, Curr. Opin. Chem. Biol. 5, 40 (2001). • 4 M. R. Martzen et al., Science 286, 1153 (1999). • 5 H. Zhu et al., Nat. Genet. 26, 283 (2000). • 6 G. MacBeath, S. L. Schreiber, Science 289, 1760 (2000). • 7 A. Caveman, J. Cell Sci. 113, 3543 (2000). • 8 P. Arenkov et al., Anal. Biochem 278, 123 (2000). • 9 D. A. Mitchell, T. K. Marshall, R. J. Deschenes, Yeast 9, 715 (1993). The expression vector pEGH was created by inserting an RGS-HisX6 epitope tag between the GST gene and the polycloning site of pEG(KG). The yeast ORFs were cloned using the strategy described previously (5), except every step was done in a 96-well format. Plasmid DNAs confirmed by DNA sequencing were reintroduced into both yeast (Y258) and E. coli (DH5a). […] 0.1 mM calcium was present in buffers in all subsequent steps. The chip was washed three times with PBS at RT. Cy3-conjugated streptavidin (Jackson IR, USA) (1:5000 dilution) was added to the chip and incubated for 30 min at RT. After extensive washing, the chip was spun dry and scanned using a microarray scanner; the data was subsequently acquired with the GENEPIX™ array densitometry software (Axon, USA). • 12 S. S. Hook, A. R. Means, Annu. Rev. Pharmacol. Toxicol.41, 471 (2001). • 13 M. S. Cyert, R. Kunisawa, D. Kaim, J. Thorner, Proc. Natl. Acad. Sci. USA 88, 7376 (1991). • 14 D. A. Stirling, K. A. Welch, M. J. Stark, EMBO J. 13, 4329 (1994). • 15 F. Bohl, Kruse, EMBO J. 19, 5514 (2000); E. Bertrand et al., Mol. Cell 2, 437 (1998). • 16 D. C. Winter, E. Y. Choe, R. Li, Proc. Nat. Acad Sci. USA 96, 7288 (1999). • 17 C.

The test system of data set [1] is phosphatidylcholine (PC) liposomes. As to the kind of experiment: Yeast proteome chip probed with PC liposomes.
Excerpt: as §1, §2, §3

The next data set has as its system PI(4)P liposomes. Briefly: Yeast proteome chip probed with PI(4)P liposomes.
Excerpt: as §1, §2, §3

The subject of another data set is PI(4,5)P2 liposomes. Briefly: Yeast proteome chip probed with PI(4,5)P2 liposomes.
Excerpt: as §1, §2, §3

The test system of the next data set is PI(3,4)P2 liposomes. Briefly: Yeast proteome chip probed with PI(3,4)P2 liposomes.
Excerpt: as §1, §2, §3

B1: DPS1: yeast GST-HisX6 fusion protein on proteome chip (protein, UniProt P04802 2-557, looked up)
Aspartate--tRNA ligase, …: SQDENIVKAVEESAEPAQVILGEDGKPLSKKALKKLQKEQEKQRKKEERALQLEAEREAREKKAAAEDTAKDNYGKLPLIQSRDSDRTGQKRVKFVDLDEAKDSDKEVLFRARVHNTRQQGATLAFLTLRQQASLIQGLVKANKEGTISKNMVKWAGSLNLESIVLVRGIVKKVDEPIKSATVQNLEIHITKIYTISETPEALPILLEDASRSEAEAEAAGLPVVNLDTRLDYRVIDLRTVTNQAIFRIQAGVCELFREYLATKKFTEVHTPKLLGAPSEGGSSVFEVTYFKGKAYLAQSPQFNKQQLIVADFERVYEIGPVFRAENSNTHRHMTEFTGLDMEMAFEEHYHEVLDTLSELFVFIFSELPKRFAHEIELVRKQYPVEEFKLPKDGKMVRLTYKEGIEMLRAAGKEIGDFEDLSTENEKFLGKLVRDKYDTDFYILDKFPLEIRPFYTMPDPANPKYSNSYDFFMRGEEILSGAQRIHDHALLQERMKAHGLSPEDPGLKDYCDGFSYGCPPHAGGGIGLERVVMFYLDLKNIRRASLFPRDPKRLRP
modifications: GST-His6 fusion tag
notes: yeast GST-HisX6 fusion protein on proteome chip
Consider B1, for which, in the data set on PI(3,4,5)P3 liposomes, the “PI(3, 4, 5)P3” value came out at 13.05. For the same molecule, the PC in data set [1] turned out to be 62.22. In addition, in the data set on PI(4)P liposomes, the “PI(4)P” value came to 99.29. The “PI(4, 5)P2” value with PI(4,5)P2 liposomes is given as 41.81. Further, the “PI(3, 4)P2” value with PI(3,4)P2 liposomes was 25.12.

B2: PKR1: yeast GST-HisX6 fusion protein on proteome chip (protein, UniProt Q03880 1-122, looked up)
V-type ATPase assembly factor …: MANFFVRLWESVFEPGTSPQLIIATHVSFVALLLTLIWLIYATNGNIHFYALFCISLLLWITVIWFINELSHVKLKDNDELDKDANKKDDSAIKEDSEDKQESGKSTSTARRTQAQSRSRKA
modifications: GST-His6 tag
notes: as for B1
B2: the “PI(3, 4, 5)P3” value in the data set on PI(3,4,5)P3 liposomes is listed as 15.75. In data set [1], this molecule registered a PC of 61.63. For the same molecule, the “PI(4)P” value in the data set with PI(4)P liposomes turned out to be 61.40. Besides, in the data set with PI(4,5)P2 liposomes, the “PI(4, 5)P2” value was found to be 87.75. In addition, the “PI(3, 4)P2” value with PI(3,4)P2 liposomes is reported as 37.52.

B3: YER046W: yeast GST-HisX6 fusion protein on proteome chip (protein, UniProt P40031 1-143, looked up)
Sporulation-specific protein …: MGKNHFLKDFSALPEDVLIENERGITLLGYPLFSPKILLPHVDPPQFQRLNTENGSLIALSKNTISNFIELYPIDLSTERTAGSSSSQMTKWFVLMDYKEKYDIDDQGWCYSWNFNNSRWKSKNGLVRRRVWVRLPTTSHGLD
modifications: GST-His6 tag
notes: as for B1
Consider B3, for which, in the data set on PI(3,4,5)P3 liposomes, the “PI(3, 4, 5)P3” value is listed as 5.62. Further, the PC in data set [1] is recorded as −18.20. Further, the “PI(4)P” value in the data set on PI(4)P liposomes was determined as 19.16. The “PI(4, 5)P2” value in the data set with PI(4,5)P2 liposomes is listed as 6.31. The “PI(3, 4)P2” value in the data set with PI(3,4)P2 liposomes came out at 11.62.

B4: SUN4: yeast GST-HisX6 fusion protein on proteome chip (protein, UniProt P53616 25-420, looked up)
Probable secreted …: YAADIDTGCTTTAHGSHQHKRAVAVTYVYETVTVDKNGQTVTPTSTEASSTVASTTTLISESSVTKSSSKVASSSESTEQIATTSSSAQTTLTSSETSTSESSVPISTSGSASTSSAASSATGSIYGDLADFSGPYEKFEDGTIPCGQFPSGQGVIPISWLDEGGWSGVENTDTSTGGSCKEGSYCSYACQPGMSKTQWPSDQPSDGRSIGGLLCKDGYLYRSNTDTDYLCEWGVDAAYVVSELSNDVAICRTDYPGTENMVIPTYVQAGDSLPLTVVDQDTYYTWQGLKTSAQYYVNNAGISVEDACVWGSSSSGVGNWAPLNFGAGSSDGVAYLSLIPNPNNGNALNFNVKIVAADDSSTVNGECIYENGSFSGGSDGCTVSVTAGKAKFVLYN
modifications: GST-His6 tag
notes: as for B1
As for B4, the “PI(3, 4, 5)P3” value in the data set with PI(3,4,5)P3 liposomes is reported as 33.19. Besides, the PC in data set [1] was 69.55. Besides, in the data set on PI(4)P liposomes, the “PI(4)P” value turned out to be 60.75. Also, in the data set on PI(4,5)P2 liposomes, the “PI(4, 5)P2” value came out at 66.41. The “PI(3, 4)P2” value with PI(3,4)P2 liposomes came out at 20.88.

B5: WRS1: yeast GST-HisX6 fusion protein on proteome chip (protein, UniProt Q12109 1-432, looked up)
Tryptophan--tRNA ligase, …: MSNDETVEKVTQQVSELKSTDVKEQVVTPWDVEGGVDEQGRAQNIDYDKLIKQFGTKPVNEETLKRFKQVTGREPHHFLRKGLFFSERDFTKILDLYEQGKPFFLYTGRGPSSDSMHLGHMIPFVFTKWLQEVFDVPLVIELTDDEKFLFKHKLTINDVKNFARENAKDIIAVGFDPKNTFIFSDLQYMGGAFYETVVRVSRQITGSTAKAVFGFNDSDCIGKFHFASIQIATAFPSSFPNVLGLPDKTPCLIPCAIDQDPYFRVCRDVADKLKYSKPALLHSRFFPALQGSTTKMSASDDTTAIFMTDTPKQIQKKINKYAFSGGQVSADLHRELGGNPDVDVAYQYLSFFKDDDVFLKECYDKYKSGELLSGEMKKLCIETLQEFVKAFQERRAQVDEETLDKFMVPHKLVWGEKERLVAPKPKTKQEKK
modifications: GST-HisX6 tag
notes: as for B1
On to B5, for which, in the data set on PI(3,4,5)P3 liposomes, the “PI(3, 4, 5)P3” value is 51.08. Moreover, the PC in data set [1] is listed as 62.51. The “PI(4)P” value with PI(4)P liposomes is recorded as 4.57. Further, in the data set with PI(4,5)P2 liposomes, the “PI(4, 5)P2” value amounted to 21.56. Also, the “PI(3, 4)P2” value in the data set with PI(3,4)P2 liposomes is 63.10.

B6: PAT1: yeast GST-HisX6 fusion protein on proteome chip (protein, UniProt P25644 2-796, looked up)
Deadenylation-dependent …: SFFGLENSGNARDGPLDFEESYKGYGEHELEENDYLNDETFGDNVQVGTDFDFGNPHSSGSSGNAIGGNGVGATARSYVAATAEGISGPRTDGTAAAGPLDLKPMESLWSTAPPPAMAPSPQSTMAPAPAPQQMAPLQPILSMQDLERQQRQMQQQFMNFHAMGHPQGLPQGPPQQQFPMQPASGQPGPSQFAPPPPPPGVNVNMNQMPMGPVQVPVQASPSPIGMSNTPSPGPVVGATKMPLQSGRRSKRDLSPEEQRRLQIRHAKVEKILKYSGLMTPRDKDFITRYQLSQIVTEDPYNEDFYFQVYKIIQRGGITSESNKGLIARAYLEHSGHRLGGRYKRTDIALQRMQSQVEKAVTVAKERPSKLKDQQAAAGNSSQDNKQANTVLGKISSTLNSKNPRRQLQIPRQQPSDPDALKDVTDSLTNVDLASSGSSSTGSSAAAVASKQRRRSSYAFNNGNGATNLNKSGGKKFILELIETVYEEILDLEANLRNGQQTDSTAMWEALHIDDSSYDVNPFISMLSFDKGIKIMPRIFNFLDKQQKLKILQKIFNELSHLQIIILSSYKTTPKPTLTQLKKVDLFQMIILKIIVSFLSNNSNFIEIMGLLLQLIRNNNVSFLTTSKIGLNLITILISRAALIKQDSSRSNILSSPEISTWNEIYDKLFTSLESKIQLIFPPREYNDHIMRLQNDKFMDEAYIWQFLASLALSGKLNHQRIIIDEVRDEIFATINEAETLQKKEKELSVLPQRSQELDTELKSIIYNKEKLYQDLNLFLNVMGLVYRDGEISELK
modifications: GST-HisX6 tag
notes: as for B1
In the case of B6, the “PI(3, 4, 5)P3” value in the data set with PI(3,4,5)P3 liposomes is 56.47. The same molecule returned a PC in data set [1] of 160.24. In addition, the “PI(4)P” value in the data set with PI(4)P liposomes is recorded as 158.95. The “PI(4, 5)P2” value in the data set on PI(4,5)P2 liposomes is on record as 66.63. For the same molecule, the “PI(3, 4)P2” value in the data set with PI(3,4)P2 liposomes was 10.05.
